Laboratory results from paper PMC10636607.
Where two headings read alike, the source gives them in different places.

Columns and labels:
Experiment in all cases: BLI
[1] = biological target: HCV E2 envelope glycoprotein
SARS-CoV-2 spike = biological target: SARS-CoV-2 spike
influenza HA = biological target: influenza HA
[2] = biological target: HC84.26.5D Fab VH G50R (human)
[3] = biological target: biotinylated SARS-CoV-2 fusion peptide

HC84.26.5D Fab VH G50R (human), sequence (heavy, as listed by the source, chain 1 of 2): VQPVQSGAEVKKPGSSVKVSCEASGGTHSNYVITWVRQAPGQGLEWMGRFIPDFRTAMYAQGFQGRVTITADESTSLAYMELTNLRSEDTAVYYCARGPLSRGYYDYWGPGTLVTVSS
HC84.26.5D Fab VH G50R (human), sequence (light, as listed by the source, chain 2 of 2): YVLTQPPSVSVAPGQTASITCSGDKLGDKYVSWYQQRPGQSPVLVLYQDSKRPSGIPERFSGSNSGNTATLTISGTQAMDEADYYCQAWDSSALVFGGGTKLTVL

For HCV1 (WT) H:W52S, which ratio to parent [1] is on record?
The ratio to parent was over 100.

How did the ratio to parent (SARS-CoV-2 spike) turn out when P008_60 (WT) H:S52R was run?
Its ratio to parent is over 100.

Which ratio to parent (influenza HA) does the source give for 8F8 (WT) H:S31R here?
The ratio to parent was over 100.

H1244 (WT) H:S32Y was tested. Which ratio to parent (influenza HA) did it give?
Its ratio to parent is over 100.

How did the ratio to parent [1] turn out when HC33.8 (WT) H:S52Y was run?
Its ratio to parent is over 100.

Which ratio to parent (SARS-CoV-2 spike; read off a plot) does the source give for Ab326 (WT) H:V50F here?
Its ratio to parent is 9.4.

How did the fold change in KD against the wild-type Fab [2] turn out when “HCV (isolate H77) E2 domain protein (domain or fragment)” was run?
The fold change in KD against the wild-type Fab was 6 fold.

Which ratio to parent (SARS-CoV-2 spike) does the source give for COVOX-316 (WT) H:W50R here?
Its ratio to parent is over 100.

For COV44-62 Fab (WT) H:R50W, which ratio to parent [3] is on record?
Its ratio to parent is over 100.
